Experimental data: patent publication US20210147507A1, “METHODS TO AUGMENT OR ALTER SIGNAL TRANSDUCTION” (Bellicum Pharmaceuticals, Inc., priority 2017, published 2021)

Tested on: chimeric Caspase-9 polypeptide
Experiment: Caspase-9 mutant classes and basal activity (Table 5)
Type: cell-based
Conditions: Caspase-9 mutant class; for Basal Activity: basal (ligand-independent) signaling compared with unmodified chimeric Caspase-9; for IC50: ligand IC50 compared with unmodified chimeric Caspase-9
Source text: Even though homo-dimerization of wild-type initiator Caspase-9 is energetically unfavorable, making them mostly monomers in solution [14-16], the low-level inherent basal activity of unprocessed Caspase-9 [15, 17] is enhanced in the presence of the Apaf-1-based “apoptosome”, its natural allosteric regulator [6]. Moreover, supra-physiological expression levels and/or co-localization could lead to proximity-driven dimerization, further enhancing basal activation. The modified cells of the present application may comprise nucleic acids coding for a chimeric Caspase-9 polypeptide having lower basal signaling activity. Polynucleotides comprising Caspase-9 mutants with lower basal signaling may be expressed in the modified cells used for cell therapy herein. In these examples, the modified cells may include a safety switch, comprising a polynucleotide encoding a lower basal signaling chimeric Caspase-9 polypeptide. In the event of an adverse event following administration of the modified cells comprising the chimeric signaling polypeptides or chimeric antigen receptors herein, Caspase-9 activity may be induced by administering the dimerizer to the patient, thus inducing apoptosis and clearance of some, or all of the modified cells. In some examples, the amount of dimerizer administered may be determined as an amount designed to remove the highest amount, at least 80% or 90% of the modified cells. In other examples, the amount of dimerizer administered may be determined as an amount designed to remove only a portion of the modified cells, in order to alleviate negative symptoms or conditions, while leaving a sufficient amount of therapeutic modified cells in the patient, in order to continue therapy. Methods for using chimeric Caspase-9 polypeptides to induce apoptosis are discussed in PCT Application Number PCT/US2011/037381 by Malcolm K. Brenner et al., titled Methods for Inducing Selective Apoptosis, filed May 20, 2011, and in U.S. patent application Ser. No. 13/112,739 by Malcolm K. Brenner et al., titled Methods for Inducing Selective Apoptosis, filed May 20, 2011, issued Jul. 28, 2015 as U.S. Pat. No. 9,089,520. Chimeric caspase polypeptides having modified basal activity are discussed in PCT Application Serial Number PCT/US2014/022004 by David Spencer et al., titled Modified Caspase Polypeptides and Uses Thereof, filed Mar. 7, 2014, published Oct. 9, 2014 as WO2014/164348, and in U.S. patent application Ser. No. 13/792,135 by David Spencer et al., titled Modified Caspase Polypeptides and Uses Thereof, filed Mar. 7, 2014; and in U.S. patent application Ser. No. 14/640,553 by Spencer et al., filed Mar. 6, 2015. Methods for inducing partial apoptosis of the therapeutic modified cells are discussed in PCT Application Number PCT/US14/040964 by Kevin Slawin et al., titled Methods for Inducing Partial Apoptosis Using Caspase Polypeptides, filed Jun. 4, 2014, published Dec. 11, 2014 as WO2014/197638, and in U.S. patent application Ser. No. 14/296,404 by Kevin Slawin et al., titled Methods for Inducing Partial Apoptosis Using Caspase Polypeptides, filed Jun. 4, 2014. These patent applications and publications are all incorporated by reference herein in their entireties.

Sequence of chimeric Caspase-9 polypeptide (P62942 2-108 F37V limits assumed): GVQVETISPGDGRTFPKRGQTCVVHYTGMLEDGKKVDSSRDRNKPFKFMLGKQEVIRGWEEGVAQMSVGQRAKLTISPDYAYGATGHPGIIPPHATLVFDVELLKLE

| Basal Activity | IC50 | Molecule |
| --- | --- | --- |
| Similar | Similar | C403A (protein) GFGDVGALESLRGNADLAYILSMEPCGHCLIINNVNFCRESGLRTRTGSNIDCEKLRRRFSSLHFMVEVKGDLTAKKMVLALLELARQDHGALDCCVVVILSHGCQASHLQFPGAVYGTDGCPVSVEKIVNIFNGTSCPSLGGKPKLFFIQACGGEQKDHGFEVASTSPEDESPGSNPEPDATPFQEGLRTFDQLDAISSLPTPSDIFVSYSTFPGFVSWRDPKSGSWYVETLDDIFEQWAHSEDLQSLLLRVANAVSVKGIYKQMPGAFNFLRKKLFFKTSASRA |
| Decreased | much higher | F404T (protein) GFGDVGALESLRGNADLAYILSMEPCGHCLIINNVNFCRESGLRTRTGSNIDCEKLRRRFSSLHFMVEVKGDLTAKKMVLALLELARQDHGALDCCVVVILSHGCQASHLQFPGAVYGTDGCPVSVEKIVNIFNGTSCPSLGGKPKLFFIQACGGEQKDHGFEVASTSPEDESPGSNPEPDATPFQEGLRTFDQLDAISSLPTPSDIFVSYSTFPGFVSWRDPKSGSWYVETLDDIFEQWAHSEDLQSLLLRVANAVSVKGIYKQMPGCTNFLRKKLFFKTSASRA |
| Decreased | much higher | F404W (protein) GFGDVGALESLRGNADLAYILSMEPCGHCLIINNVNFCRESGLRTRTGSNIDCEKLRRRFSSLHFMVEVKGDLTAKKMVLALLELARQDHGALDCCVVVILSHGCQASHLQFPGAVYGTDGCPVSVEKIVNIFNGTSCPSLGGKPKLFFIQACGGEQKDHGFEVASTSPEDESPGSNPEPDATPFQEGLRTFDQLDAISSLPTPSDIFVSYSTFPGFVSWRDPKSGSWYVETLDDIFEQWAHSEDLQSLLLRVANAVSVKGIYKQMPGCWNFLRKKLFFKTSASRA |
| Decreased | much higher | F406T (protein) GFGDVGALESLRGNADLAYILSMEPCGHCLIINNVNFCRESGLRTRTGSNIDCEKLRRRFSSLHFMVEVKGDLTAKKMVLALLELARQDHGALDCCVVVILSHGCQASHLQFPGAVYGTDGCPVSVEKIVNIFNGTSCPSLGGKPKLFFIQACGGEQKDHGFEVASTSPEDESPGSNPEPDATPFQEGLRTFDQLDAISSLPTPSDIFVSYSTFPGFVSWRDPKSGSWYVETLDDIFEQWAHSEDLQSLLLRVANAVSVKGIYKQMPGCFNTLRKKLFFKTSASRA |
| Decreased | much higher | N405F (protein) GFGDVGALESLRGNADLAYILSMEPCGHCLIINNVNFCRESGLRTRTGSNIDCEKLRRRFSSLHFMVEVKGDLTAKKMVLALLELARQDHGALDCCVVVILSHGCQASHLQFPGAVYGTDGCPVSVEKIVNIFNGTSCPSLGGKPKLFFIQACGGEQKDHGFEVASTSPEDESPGSNPEPDATPFQEGLRTFDQLDAISSLPTPSDIFVSYSTFPGFVSWRDPKSGSWYVETLDDIFEQWAHSEDLQSLLLRVANAVSVKGIYKQMPGCFFFLRKKLFFKTSASRA |

More lines, now with the values behind:

| Molecule | Basal Activity | IC50 |
| --- | --- | --- |
| D330A (protein) GFGDVGALESLRGNADLAYILSMEPCGHCLIINNVNFCRESGLRTRTGSNIDCEKLRRRFSSLHFMVEVKGDLTAKKMVLALLELARQDHGALDCCVVVILSHGCQASHLQFPGAVYGTDGCPVSVEKIVNIFNGTSCPSLGGKPKLFFIQACGGEQKDHGFEVASTSPEDESPGSNPEPDATPFQEGLRTFDQLAAISSLPTPSDIFVSYSTFPGFVSWRDPKSGSWYVETLDDIFEQWAHSEDLQSLLLRVANAVSVKGIYKQMPGCFNFLRKKLFFKTSASRA | Decreased | higher IC50 |
| D330E (protein) GFGDVGALESLRGNADLAYILSMEPCGHCLIINNVNFCRESGLRTRTGSNIDCEKLRRRFSSLHFMVEVKGDLTAKKMVLALLELARQDHGALDCCVVVILSHGCQASHLQFPGAVYGTDGCPVSVEKIVNIFNGTSCPSLGGKPKLFFIQACGGEQKDHGFEVASTSPEDESPGSNPEPDATPFQEGLRTFDQLEAISSLPTPSDIFVSYSTFPGFVSWRDPKSGSWYVETLDDIFEQWAHSEDLQSLLLRVANAVSVKGIYKQMPGCFNFLRKKLFFKTSASRA | Decreased | higher IC50 |
| Y153A (protein) GFGDVGALESLRGNADLAAILSMEPCGHCLIINNVNFCRESGLRTRTGSNIDCEKLRRRFSSLHFMVEVKGDLTAKKMVLALLELARQDHGALDCCVVVILSHGCQASHLQFPGAVYGTDGCPVSVEKIVNIFNGTSCPSLGGKPKLFFIQACGGEQKDHGFEVASTSPEDESPGSNPEPDATPFQEGLRTFDQLDAISSLPTPSDIFVSYSTFPGFVSWRDPKSGSWYVETLDDIFEQWAHSEDLQSLLLRVANAVSVKGIYKQMPGCFNFLRKKLFFKTSASRA | Decreased | much higher |
| D315A (protein) GFGDVGALESLRGNADLAYILSMEPCGHCLIINNVNFCRESGLRTRTGSNIDCEKLRRRFSSLHFMVEVKGDLTAKKMVLALLELARQDHGALDCCVVVILSHGCQASHLQFPGAVYGTDGCPVSVEKIVNIFNGTSCPSLGGKPKLFFIQACGGEQKDHGFEVASTSPEDESPGSNPEPAATPFQEGLRTFDQLDAISSLPTPSDIFVSYSTFPGFVSWRDPKSGSWYVETLDDIFEQWAHSEDLQSLLLRVANAVSVKGIYKQMPGCFNFLRKKLFFKTSASRA | Decreased | much higher |
| F319W (protein) GFGDVGALESLRGNADLAYILSMEPCGHCLIINNVNFCRESGLRTRTGSNIDCEKLRRRFSSLHFMVEVKGDLTAKKMVLALLELARQDHGALDCCVVVILSHGCQASHLQFPGAVYGTDGCPVSVEKIVNIFNGTSCPSLGGKPKLFFIQACGGEQKDHGFEVASTSPEDESPGSNPEPDATPWQEGLRTFDQLDAISSLPTPSDIFVSYSTFPGFVSWRDPKSGSWYVETLDDIFEQWAHSEDLQSLLLRVANAVSVKGIYKQMPGCFNFLRKKLFFKTSASRA | Decreased | much higher |
| A316G (protein) GFGDVGALESLRGNADLAYILSMEPCGHCLIINNVNFCRESGLRTRTGSNIDCEKLRRRFSSLHFMVEVKGDLTAKKMVLALLELARQDHGALDCCVVVILSHGCQASHLQFPGAVYGTDGCPVSVEKIVNIFNGTSCPSLGGKPKLFFIQACGGEQKDHGFEVASTSPEDESPGSNPEPDGTPFQEGLRTFDQLDAISSLPTPSDIFVSYSTFPGFVSWRDPKSGSWYVETLDDIFEQWAHSEDLQSLLLRVANAVSVKGIYKQMPGCFNFLRKKLFFKTSASRA | Decreased | much higher |
| S307A (protein) GFGDVGALESLRGNADLAYILSMEPCGHCLIINNVNFCRESGLRTRTGSNIDCEKLRRRFSSLHFMVEVKGDLTAKKMVLALLELARQDHGALDCCVVVILSHGCQASHLQFPGAVYGTDGCPVSVEKIVNIFNGTSCPSLGGKPKLFFIQACGGEQKDHGFEVASTSPEDEAPGSNPEPDATPFQEGLRTFDQLDAISSLPTPSDIFVSYSTFPGFVSWRDPKSGSWYVETLDDIFEQWAHSEDLQSLLLRVANAVSVKGIYKQMPGCFNFLRKKLFFKTSASRA | Decreased | much higher |
| Y153F (protein) GFGDVGALESLRGNADLAFILSMEPCGHCLIINNVNFCRESGLRTRTGSNIDCEKLRRRFSSLHFMVEVKGDLTAKKMVLALLELARQDHGALDCCVVVILSHGCQASHLQFPGAVYGTDGCPVSVEKIVNIFNGTSCPSLGGKPKLFFIQACGGEQKDHGFEVASTSPEDESPGSNPEPDATPFQEGLRTFDQLDAISSLPTPSDIFVSYSTFPGFVSWRDPKSGSWYVETLDDIFEQWAHSEDLQSLLLRVANAVSVKGIYKQMPGCFNFLRKKLFFKTSASRA | Decreased | much higher |
